The numbers were not newly measured in publication PMC3139910, which cites them from elsewhere.

For this data set, the target named is CCR7 (Homo sapiens) (UniProt P32248).
Chain of UniProt P32248 (P32248 25-378): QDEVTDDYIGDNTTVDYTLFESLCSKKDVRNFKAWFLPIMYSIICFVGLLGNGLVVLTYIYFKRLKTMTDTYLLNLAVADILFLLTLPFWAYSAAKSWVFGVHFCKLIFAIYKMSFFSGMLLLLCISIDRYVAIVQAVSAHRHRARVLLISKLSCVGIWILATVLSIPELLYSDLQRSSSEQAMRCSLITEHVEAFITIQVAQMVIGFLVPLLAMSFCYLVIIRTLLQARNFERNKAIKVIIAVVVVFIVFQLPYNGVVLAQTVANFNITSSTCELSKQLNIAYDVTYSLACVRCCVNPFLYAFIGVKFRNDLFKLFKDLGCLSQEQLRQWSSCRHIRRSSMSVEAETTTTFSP

With CCL21 (from UniProt O00585), the Kd (as a rule, a measure of binding affinity in units of concentration) was 5 nM.
